# Data published in patent CN111662379A.
# Assays:
# [1] = target: T1, 重组SARS-CoV-2刺突蛋白胞外区 (extra cellular domain of spike protein, S-ECD) (SARS-CoV-2), P0DTC2; experiment: SPR, Biacore 8K, S-ECD immobilised on a CM5 chip, antibody injected at 125nM~7.8nM; settings: remark: other sources report otherwise
# [2] = target: T1, 重组SARS-CoV-2刺突蛋白胞外区 (extra cellular …); experiment: indirect ELISA, S-ECD coated at 1μg/ml; settings: remark: other sources report otherwise
binder,measurement,setting,value
FC05 (antibody) chain 1: EVQLLEQSGAEVKKPGASVRVSCKVSGYTLPEVAMHWVRQAPGKGLEWMGGFDPEDGETIYAQKFQGRVTMTEDTSTDTAYMELSSLRSEDTAVYYCATTTPFSSSFWFDPWGQGTLVTVSS chain 2: QSVLTQAPSVSGAPGQKVTISCSGSSSNIGNNYVSWYQQLPGTAPKLLIYDNNKRPSGIPDRFSGSKSGTSATLGITGLQTGDEADYYCGTWDSSLSAVVFGGGTKLTVL,Kd,[1],0.1 nM
same,抗体滴度 (dilution 1:x from 1mg/mL),[2],320000
